In patent publication US20070054271A1:

Experiments:
[1] = molecular target: putative CXCL14 receptor (CXCL14-binding cell surface protein(s)) on breast epithelial and breast cancer cells; experiment: Scatchard analysis of AP-CXCL14 binding to MDA-MB-231 cells in suspension, bound AP activity; high affinity site
[2] = molecular target: putative CXCL14 receptor (CXCL14-binding cell surface protein(s)) on breast epithelial and breast cancer cells; experiment: Scatchard analysis of AP-CXCL14 binding to MDA-MB-231 cells in suspension, bound AP activity; low affinity site

Kd [1]: 61 nM | Kd [2]: 567 nM
Substance: alkaline phosphatase-CXCL14 (AP-CXCL14) fusion protein, AP located N-terminal of the CXCL14 (from UniProt O95715 35-111) (ligand)
